The text below walks through data of US20030032592A1 (published 2003).

B2: Oxysterol liver X receptor alpha (LXR-alpha), amino acids 95-277, Gal4 DNA-binding-domain fusion (bait) (receptor, UniProt P04386 1-147, looked up)
chain: MKLLSSIEQACDICRLKKLKCSKEKPKCAKCLKNNWECRYSPKTKRSPLTRAHLTEVESRLERLEQLFLLIFPREDLDMILKMDSLQDIKALLTGLFVQDNVNKDAVTDRLASVETDMPLTLRQHRISATSSSEESSNKGQRQLTVSNELCSVCGDKASGFHYNVLSCEGCKGFFRRSVIKGAHYICHSGGHCPMDTYMRRKCQECRLRKCRQAGMREECVLSEEQIRLKKLKRQEEEQAHATSLPPRASSPPQILPQLSPEQLGMIEKLVAAQQQCNRRSFSDRLRVTPWPMAPDPHSREARQQRFAHFTELAIVSVQEIVDFAKQLPG
notes: range 1-147;range 95-277; Bait made by PCR from brain cDNA and expressed in yeast from vector pGBTQ as a C-terminal fusion to Gal4 DBD

Assay [1] concerns the target T1, Oxysterol liver X receptor alpha (LXR-alpha), amino acids 156-448, Gal4 DNA-binding-domain fusion (bait) (yeast (Saccharomyces cerevisiae), UniProt P04386 1-147; Q13133 156-447).
T1 construct: range 1-147;range 156-448; Bait expressed in yeast from pGBTQ as a C-terminal fusion to Gal4 DBD
As to the kind of experiment: yeast two-hybrid; prey clone identified for the bait of the same row (Ex. 12). An excerpt:
(§1) A total human brain (person) cDNA library cloned into the yeast expression vector pACT2 was purchased from Clontech (human brain […] cDNA, cat. # HL4004AH), transformed into the yeast strain J692 (genotype of this strain: Mat a, ade2, his3, leu2, trp1, URA3::GAL1-1acZ LYS2::GAL1-HIS3 ga14del ga180del cyhR2), and selected for the ability to drive leucine synthesis. In these yeast cells, each cDNA is expressed as a fusion protein with the transcription activation domain of the transcription factor Ga14 (amino acids 768 to 881) and a 9 amino acid hemagglutinin epitope tag. J693 cells (Mat α type) expressing the bait were then mated with J692 cells ([…]) expressing proteins from the brain library. The resulting diploid yeast cells expressing proteins interacting with the bait protein were selected for the ability to synthesize tryptophan, leucine, histidine, and β-galactosidase. DNA was prepared from each clone, transformed by electroporation into E. coli strain KC8 (Clontech KC8 electrocompetent cells, cat. # C2023-1), and the cells were selected on ampicillin-containing plates in the absence of either tryptophane (selection for the bait plasmid) or leucine (selection for the brain library plasmid). DNA for both plasmids was prepared and sequenced by di-deoxynucleotide chain termination method. […]

The target of assay [2] is T2, PSMD11, amino acids 87-422, Gal4 activation-domain fusion (prey clone) (yeast (Saccharomyces cerevisiae); human, UniProt P04386 768-881; O00231 87-422).
T2 construct: range 768-881;range 87-422; Clone from the human brain cDNA library in pACT2; also called proteasome subunit PSMD11
The assay can be described thus: yeast two-hybrid; prey clone identified for the bait of the same row (Ex. 10).
Source text: as §1

For assay [3], the target named is B2. As to the kind of experiment: yeast two-hybrid; prey clone identified for the bait of the same row (Ex. 6).
Source text: as §1

Assay [4] addresses T3, Oxysterol liver X receptor alpha (LXR-alpha), amino acids 257-448, Gal4 DNA-binding-domain fusion (bait) (yeast (Saccharomyces cerevisiae), UniProt P04386 1-147; Q13133 257-447).
T3 construct: range 1-147;range 257-448; Bait expressed in yeast from pGBTQ as a C-terminal fusion to Gal4 DBD
As to the kind of experiment: yeast two-hybrid; prey clone identified for the bait of the same row (Ex. 8).
Source text: as §1

The target of assay [5] is T1, Oxysterol liver X receptor alpha …. The assay can be described thus: yeast two-hybrid; prey clone identified for the bait of the same row (Ex. 9).
Source text: as §1

The target of assay [6] is T4, zyxin, amino acids 323-572, Gal4 activation-domain fusion (prey clone) (yeast (Saccharomyces cerevisiae); human, UniProt P04386 768-881; Q15942 323-572).
T4 construct: range 768-881;range 323-572; Clone from the human brain cDNA library in pACT2
T4 sequence (looked up): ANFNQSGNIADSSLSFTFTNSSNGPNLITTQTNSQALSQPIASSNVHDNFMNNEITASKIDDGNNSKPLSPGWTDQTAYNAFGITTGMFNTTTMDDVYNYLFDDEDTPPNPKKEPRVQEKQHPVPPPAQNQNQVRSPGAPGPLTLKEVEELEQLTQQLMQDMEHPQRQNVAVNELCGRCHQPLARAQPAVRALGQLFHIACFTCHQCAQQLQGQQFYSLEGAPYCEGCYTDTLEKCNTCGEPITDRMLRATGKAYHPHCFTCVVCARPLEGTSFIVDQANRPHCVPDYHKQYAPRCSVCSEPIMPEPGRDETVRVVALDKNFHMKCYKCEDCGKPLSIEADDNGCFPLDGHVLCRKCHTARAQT
The assay can be described thus: yeast two-hybrid; prey clone identified for the bait of the same row (Ex. 4).
Source text: as §1

B1: CIR, amino acids 226-450, Gal4 activation-domain fusion (prey clone) (other, yeast (Saccharomyces cerevisiae);human, UniProt P04386 768-881, looked up, not shown: small tags and cut ends)
chain: ANFNQSGNIADSSLSFTFTNSSNGPNLITTQTNSQALSQPIASSNVHDNFMNNEITASKIDDGNNSKPLSPGWTDQTAYNAFGITTGMFNTTTMDDVYNYLFDDEDTPPNPKKERKLDRLEKKKKKKDRKKKKFQKSRSKHKKHKSSSSSSSSSSSSSSTETSESSSESESNNKEKKIQRKKRKKNKCSGHNNSDSEEKDKSKKRKLHEELSSSHHNREKAKEKPRFLKHESSREDSKWSHSDSDKKSRTHKHSPEKRGSERKEGSSRSHGREERSRRSRSRSPGSYKQRETRKRAQRNPGEEQSRRNDSRSHGTDLYRGEKMYREHPGGTHTKVTQRE
notes: range 768-881;range 226-450; Clone from the human brain cDNA library in pACT2; also called transcription factor CIR
In the case of B1, the binding result in assay [1] is on record as “binds”. B2: in assay [2], the binding result is reported as “binds”.

B3: Homer-3, amino acids 182-354, Gal4 activation-domain fusion (prey clone) (other, yeast (Saccharomyces cerevisiae);human, UniProt P04386 768-881, looked up, not shown: small tags and cut ends)
chain: ANFNQSGNIADSSLSFTFTNSSNGPNLITTQTNSQALSQPIASSNVHDNFMNNEITASKIDDGNNSKPLSPGWTDQTAYNAFGITTGMFNTTTMDDVYNYLFDDEDTPPNPKKEEVQWEAEFFALQDSNNKLAGALREANAAAAQWRQQLEAQRAEAERLRQRVAELEAQAASEVTPTGEKEGLGQGQSLEQLEALVQTKDQEIQTLKSQTGGPREALEAAEREETQQKVQDLETRNAELEHQLRAMERSLEEARAERERARAEVGRAAQLLDVSLFELSELREGLA
notes: range 768-881;range 182-354; Clone from the human brain cDNA library in pACT2; The printed GenBank number has one digit too many
On to B3, for which the binding result in assay [3] is listed as “binds”.

B4: EIF3S1, amino acids 94-254, Gal4 activation-domain fusion (prey clone) (other, yeast (Saccharomyces cerevisiae);human, UniProt P04386 768-881, looked up, not shown: small tags and cut ends)
chain: ANFNQSGNIADSSLSFTFTNSSNGPNLITTQTNSQALSQPIASSNVHDNFMNNEITASKIDDGNNSKPLSPGWTDQTAYNAFGITTGMFNTTTMDDVYNYLFDDEDTPPNPKKEEIKKRLEEPEEPKVLTPEEQLADKLRLKKLQEESDLELAKETFGVNNAVYGIDAMNPSSRDDFTEFGKLLKDKITQYEKSLYYASFLEVLVRDVCISLEIDDLKKITNSLTVLCSEKQKQEKQSKAKKKKKGVVPGGGLKATMKDDLADYGGYDGGYVQDY
notes: range 768-881;range 94-254; Clone from the human brain cDNA library in pACT2; also called translation initiation factor EIF3S1
As for B4, the binding result in assay [4] and in assay [5] was “binds” throughout.

B5: Oxysterol liver X receptor alpha (LXR-alpha), amino acids 95-156, Gal4 DNA-binding-domain fusion (bait) (receptor, UniProt P04386 1-147, looked up)
chain: MKLLSSIEQACDICRLKKLKCSKEKPKCAKCLKNNWECRYSPKTKRSPLTRAHLTEVESRLERLEQLFLLIFPREDLDMILKMDSLQDIKALLTGLFVQDNVNKDAVTDRLASVETDMPLTLRQHRISATSSSEESSNKGQRQLTVSNELCSVCGDKASGFHYNVLSCEGCKGFFRRSVIKGAHYICHSGGHCPMDTYMRRKCQECRLR
notes: range 1-147;range 95-156; Bait expressed in yeast from pGBTQ as a C-terminal fusion to Gal4 DBD
With B5, the binding result in assay [6] is recorded as “binds”.
